Tests used:
[1] = target: prefusion-stabilized RSV F (DS-Cav1), subtype B (strain B9320), with C-terminal His tag and Strep-ta (human respiratory syncytial virus subtype B (strain B9320)); assay: SPR
[2] = target: prefusion-stabilized RSV F (DS-Cav1), subtype A (strain A2), with C-terminal His tag and Strep-tag I (human respiratory syncytial virus subtype A (strain A2)) (UniProt P03420); assay: SPR
[3] = target: prefusion-stabilized RSV F variant DS-Cav1 from strain A2, tags removed, Endo H-treated (form used for crystallization) (human respiratory syncytial virus subtype A (strain A2)) (UniProt P03420); assay: crystal structure
[4] = target: subtype A DS-Cav1 with a K209Q substitution (form used for SPR) (human respiratory syncytial virus subtype A (strain A2)) (UniProt P03420); assay: SPR

Chain of AM22 antigen-binding fragment (Fab) (VH): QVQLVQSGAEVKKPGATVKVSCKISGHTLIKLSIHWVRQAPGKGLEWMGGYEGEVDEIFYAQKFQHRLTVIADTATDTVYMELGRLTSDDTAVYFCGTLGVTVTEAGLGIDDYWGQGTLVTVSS
Chain of AM22 antigen-binding fragment (Fab) (VL): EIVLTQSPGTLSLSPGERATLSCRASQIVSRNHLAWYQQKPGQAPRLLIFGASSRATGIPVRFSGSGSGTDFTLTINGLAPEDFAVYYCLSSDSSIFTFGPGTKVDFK

D25 Fab
Kd [1]: 0.33 nM
Kd [2]: < 0.064 nM

AM22 antigen-binding fragment (Fab)
stoichiometry N (Fabs per F trimer) [3]: 3
Kd [1]: 6.1 nM
Kd [2]: 0.12 nM
Kd [4]: 6.7 nM

From publication PMC6658013
